Reference: patent US20250262297A1, “ALLERGY ANTIGEN AND EPITOPE THEREOF” (HOYU CO., LTD., priority 2017, published 2025)

System: IgE antibodies from soybean-allergic patients
Assay: Immunoblotting of two-dimensional electrophoresis pattern of soybean proteins with patient serum
Assay type: binding, human
Conditions: spot in 2D electrophoresis gel of soybean proteins; patient serum compared with healthy subject serum
Text: Transfer to membrane was done using the following transfer system and transfer buffer. • Transfer system: XCell SureLock Mini-Cell and XCell II Blot Module (produced by Life Technologies) • Transfer buffer: NuPAGE Transfer Buffer (X20) (produced by Life Technologies), used in a form diluted 20-fold with milliQ water.
To be specific, proteins in the two-dimensional electrophoresis gels were transferred to a membrane (PVDF membrane) according to the following procedure. • (1) The PVDF membrane was immersed in 100% methanol followed by milliQ water, and then moved into the transfer buffer to hydrophilize the PVDF membrane. • (2) After sponge, filter paper, the gels treated by second-dimensional SDS-PAGE, the hydrophilized PVDF membrane, filter paper, and sponge were put in place in this order, the transfer system was energized at a constant voltage of 30 V for one hour.
Immunoblotting of the membrane was carried out using, as a primary antibody, a serum sample from a patient with a soybean allergy or a serum sample from a healthy subject.
Immunoblotting of the membrane was carried out according to the following procedure. • (1) The transferred membrane was shaken in a 5% skim milk/PBST solution (a PBS buffer containing 0.3% Tween 20 nonionic surfactant) at room temperature for one hour. • (2) The membrane was left to stand in a solution of 3% primary antibody serum in 5% skim milk/PBST at room temperature for one hour. • (3) The membrane was washed with a PBST solution (5 min.×3 times). • (4) The membrane was left to stand in a 1:2500 dilution of the secondary antibody, anti-human IgE-HRP (horseradish peroxidase), with a 3% skim milk/PBST solution at room temperature for one hour. • (5) The membrane was washed with a PBST solution (5 min.×3 times). • (6) The membrane was left to stand in Pierce Western Blotting Substrate Plus (produced by Thermo Fisher Scientific) for 5 minutes.
The membrane obtained through the foregoing series of treatments was subjected to fluorescent image scanning on Typhoon 9400 (produced by GE).
The immunoblots obtained with the serum from the soybean-allergic patient were compared with those obtained with the control serum from the healthy subject.

| Molecule | specific binding to IgE antibodies from soybean-allergic patients |
| --- | --- |
| endoplasmin homolog isoform X2 (protein, Glycine max) MRKWTVASALLLLSLLFLFADQGRKFQANAEGDSDELVDPPKVEDKIGAVPHGLSTDSDVVKREAESISKRSLRSNAEKFEFQAEVSRLMDIIINSLYSNKDIFLRELISNASDALDKIRFLSLTDKEVLGEGDNTKLDIQIKLDKEKKILSIRDRGIGMTKEDLIKNLGTIAKSGTSAFVEKMQTSGDLNLIGQFGVGFYSVYLVADYVEVISKNNDDKQYVWESKADGAFAISEDTWNEPLGRGTEIRLHLKEEAGEYLEESKLKELVKRYSEFINFPIYIWASKEVDVEVPADEDDSSDEEDSSESSSKEESEDEDADKSEDEEKKPKTKTVKETTYEWELLNDVKAIWLRNPKEVTEEEYTKFYHSLAKDFSDEKPLAWSHFTAEGDVEFKAVLFVPPKAPQDLYESYYNANKSNLKLYVRRVFISDEFNELLPKYLNFLLGLVDSDTLPLNVSREMLQQHSSLKTIKKKLIRKALDMIRRIADEDPDESTDKEKKDASSDNDEKKGQYSKFWNEFGKSIKLGIIEDATNRNRLAKLLRFESTKSEGKLTSLDQYISRMKTGQKDIFYITGTSKEQLENSPFLERLKKKNFEVIFFTDPVDEYLMQYLMDYEDKKFQNVSKEGLKLGKDSKDKELKESFKDLTKWWKTALSKDNVDDVKISNRLDNTPCVVVTSKFGWSANMERIMQSQTLSDASKQAYMRGKRVLEINPRHPIIKELRERVVKNPEDEGVKHTAQLMYQTALFESGFLLDDPKDFASRIYDSVKTSLDISPEATVEEEDDTEVEAESDAKEDSKPETDAVNDDNDVKDEL | specific binding |
| phosphoglycerate kinase, cytosolic (protein, Glycine max) MATKRSVGTLKEGDLKGKRVFVRVDLNVPLDDNLNITDDTRVRAAVPTIKYLTGYGAKVILSSHLGRPKGVTPKYSLKPLVPRLSQLLGIEVTMANDSIGEEVEKLVTQLPEGGVLLLENVRFYKEEEKNDPEFAKKLASLADLYVNDAFGTAHRAHASTEGVAKYLKPSVAGFLMQKELDYLVGAVSNPKRPFAAIVGGSKVSSKIGVIESLLEKVNVLLLGGGMIFTFYKAQGYSVGSSLVEEDKLSLATTLLEKAKAKGVSLLLPTDVVIADKFAADANSKTVPASSIPDGWMGLDIGPDSIKTFGEALDTTQTIIWNGPMGVFEFDKFATGTEAIAKKLAELSGKGVTTIIGGGDSVAAVEKVGLADKMSHISTGGGASLELLEGKQLPGVLALDDA | specific binding |
| alcohol dehydrogenase 1 (protein, Glycine max, spot also identified as alcohol dehydrogenase 1-like) MSSSTVGQVIKCKAAVSWEAGKPLVIEEVEVAPPQAGEVRLKILYTSLCHTDVYFWEAKGQTPLFPRIFGHEAGGIVESVGEGVTHLKPGDHALPVFTGECGECPHCKSEESNMCDLLRINTDRGVMIHDSQTRFSIKGQPIYHFVGTSTFSEYTVVHAGCVAKVNPAAPLDKICVLSCGICTGLGATINVAKPKPGSSVAIFGLGAVGLAAAEGARISGASRIIGVDLVSSRFEEAKKFGVNEFVNPKDHDKPVQEVIAAMTNGGVDRAVECTGSIQAMISAFECVHDGWGVAVLVGVPNKDDAFKTHPVNFLNERTLKGTFYGNYKPRTDLPSVVEKYMNGELELEKFITHTVPFSEINKAFDYMLKGESIRCIIRMGE | specific binding |
| 35 kDa seed maturation protein isoform X1 (protein) MASRQQFKEDRAEAAAKLAAKDIGDINRTNERDEGYDLHDEANFKQARAEAAAKLAAKDLEDANRLRDNTFNTWKEQHQHDENKPGVIGSMFRAAKEAVVGKPHHEEVYAKETKMGEYSDYATQKARETKQKAGEYTDYAAQKAKETKDYAAEKAKNAKDTTVQKAGEYKDYTAEKAKNAKDTTVQKAGEYKDYTAEKAIEGKDSAVGKLGELKESAADAAKRAMGFFTGGNKDQTREEEEETRRSMQEVRVQDKEYGTGRGTGEKLVIKMEESRPGAVADALKAANRAMDGDMEEEGVLHVERRREKM | specific binding |
| seed maturation protein PM34 (protein, Glycine max, spot also identified as uncharacterized protein LOC100809384 and hypothetical protein GLYMA_10G155300) MASGEQKFPPQQQQTQPGKEHAMTPVPQFTSPDYKPSNKLQGKIALVTGGDSGIGRAVCNLFALEGATVAFTYVKGHEDKDARDTLEMIKRAKTSDAKDPMAIASDLGYDENCKRVVDEVVSAYGCIDILVNNAAEQYECGTVEDIDEPRLERVFRTNIFSYFFMARHALKHMKEGSSIINTTSVNAYKGHAKLLDYTSTKGAIVAYTRGLALQLVSKGIRVNGVAPGPIWTPLIPASFKEEETAQFGAQVPMKRAGQPIEVAPSYVFLASNQCSSYITGQVLHPNGGTVVNG | specific binding |
| ATP synthase subunit O, mitochondrial-like (protein) MALCNRVRSGISLFTKSTFLTSQRSTLQRSLVAPFISLASRNYANVPGQKETKVKVPLALFGGSGNYASALYIASVKANAVEKVETELLQFVEAVKNSPIFSQFIRDLSVAKDVRVKVIQDICGEAKFSDVTKNFLVIVAENGRLKNIDTIAKRFAQLSMAYKGEVQATVTTVVPLPPEEEKALKETLQEIIGSGAKVHLEQKIDPSILGGLVLEFSQKVFDMSIKTRAQQMERILREPVSIANI | specific binding |
| P24 oleosin isoform A (protein, Glycine max) MTTQVPPHSVQVHTTTHRYEAGVVPPGARFEPPRYEAGVKAPSIYHSERGPTTSQVLAVLAGLPVGGILLLLAGLTLAGTLTGLAVATPLFVLFSPVLVPATVAIGLAVAGFLTSGAFGLTALSSFSWILNYIRETQPASENLAAAAKHHLAEAAEYVGQKTKEVGQKTKEVGQDIQSKAQDTREAAARDAREAAARDAREAAARDAKVEARDVKRTTVTATTATA | specific binding |
| uncharacterized protein At3g49720-like isoform X2 (protein) MTRKQASSTRRGGLSGVLHSKSKSSPLLSISLVLFVAILLILYACIGSGILGGRKDVISMAEDDFSCTFEVPSAIPVLKNAYGGSMKNVLHVGPESCSVVSKFLREGETEAWGVEPYDLDDADRNCKALVQKGIIRVADIKFPLPYRVKSFSHVIVSDALDYLSPKYINKTLPELARVSSDGIIIFTGYPGQPRAKIAPLSKFGRPHRC | specific binding |
| superoxide dismutase [Mn], mitochondrial (protein, Glycine max, spot also identified as hypothetical protein GLYMA_04G221300) MAARALLTRKTLATVLRNDAKPIIGVGITAAATHSRGLHVYTLPDLDYDYGALEPAISGDIMQLHHQKHHQTYITNYNKALEQLQDAIAKKDSSAVVKLQGAIKFNGGGHVNHSIFWKNLAPVREGGGEPPKGSLGWAIDTHFGSFEALIQKVNAEGAALQGSGWVWLGLDKELKRLVVETTANQDPLVTKGPNLVPLIGIDVWEHAYYLQYKNVRPDYLKNIWKVINWKYASEVYEKESS | specific binding |
| uncharacterized protein LOC100499771 (protein, Glycine max, spot also identified as hypothetical protein GLYMA_09G192800) MAPIAVGDVIPDGILAYLDEENKPQTVSIHSLAAGKKVIIFGVPGAFTPTCSLKHVPGFIERAEELKGKGVDEIICISVNDPFVMNSWAKTFPENKHVKFLADGAAKYTNALGLELDLTDKGLGVRSKRFALLVEDLKVKVANVESGGEFTISSAEEIIKAL | specific binding |
| seed maturation protein PM22 (protein) MSQLLDKAKNFVSEKVNDMAKPEASVTDVDFKRVSKDNVEYLAKVSVRNPYSTSIPICEINYSFKSASREIASGKIPDPGSLKAKDTTMVDVPVKVPYSILMSLAKDIGADWDIDYQLDLGLVIDVPVIGIFTIPLSQKGEIKLPTLSTMFA | specific binding |
| eukaryotic translation initiation factor 5A-2 (protein, Glycine max, spot also identified as uncharacterized protein LOC100305510) MSDEEHHFESKADAGASKTYPQQAGTIRKNGYIVIKGRPCKVVEVSTSKTGKHGHAKCHFVGIDIFTAKKLEDIVPSSHNCDVPHVNRTDYQLIDIAEDGFLSLLTENGNTKDDLKLPTDESLLTQIKDGFAEGKDLVVSVMSAMGEEQICALKDIGPKN | specific binding |
| uncharacterized protein LOC100306570 (protein) MASQSNTKSVHDFTVKDARGNNVNLADYKGKVLLIVNVASQCGLTNSNYTELNQLYEKYKGKGLEILAFPCNQFGAQEPGTNEEIVEFACTRFKAEFPIFDKVDVNGDNAAPLYKFLKSSKGGLFGDSIKWNFSKFLVDKDGNVVDRYAPTTSPLSIEKDIKKLLDA | specific binding |
| uncharacterized protein LOC100813859 (protein) MASEESQNKPPSEQSTTELITSAKLVAEAAQSALKSDSDKVDKAKVADAAGDLLDAAGKYGKLDDKQGIGQYVDKAADYLHNYQGDNTTAPSQPAESKGEESGGGLGGLANLAGGFFKK | specific binding |
